What was measured:
[1] = molecular target: CD16-F176V-V196_S197insP-V197_T198insP (Homo sapiens (Human)) (UniProt P08637); test: cell-based or functional assay
[2] = molecular target: CD16-WT (Homo sapiens (Human)) (UniProt P08637); test: cell-based or functional assay

metalloproteinase 17 (ADAM17) (from UniProt P78536 215-824) (enzyme)
decrease of CD16 expression on iNK cells after adding Raji cells and Rituximab [1]: 9%
decrease of CD16 expression on iNK cells after adding Raji cells and Rituximab [2]: 40%

Source: US20250257116A1
